These results are taken from patent US6008029A, “Purified coprinus laccases and nucleic acids encoding the same” (Novo Nordisk Biotech Inc., priority 1996, dated 1999).

Substrate in data set [1]: CCn1c(=NN=c2sc3cc(S(=O)(=O)O)ccc3n2CC)sc2cc(S(=O)(=O)O)ccc21
The data set is described as follows: purified protein, by the assay type. The following applies: other: pH 5.3, ABTS oxidation, 20.0 °C.

Substrate in data set [2]: COc1cc(C=NN=Cc2cc(OC)c(O)c(OC)c2)cc(OC)c1O
Kind of data set: purified protein, by the assay type. The format is biochemical, Coprinus cinereus. The settings on record: other: pH 5.3, syringaldazine oxidation, 20.0 °C.

B1: recombinant Coprinus cinereus laccase Lcc1 (SEQ ID NO:27), expressed in Aspergillus oryzae (Coprinopsis cinerea) (protein)
chain: QIVNSVDTMTLTNANVSPDGFTRAGILVNGVHGPLIRGGKNDNFELNVVNDLDNPTMLRPTSIHWHGLFQRGTNWADGADGVNQCPISPGHAFLYKFTPAGHAGTFWYHSHFGTQYCDGLRGPMVIYDDNDPHAALYDEDDENTIITLADWYHIPAPSIQGAAQPDATLINGKGRYVGGPAAELSIVNVEQGKKYRMRLISLSCDPNWQFSIDGHELTIIEVDGQLTEPHTVDRLQIFTGQRYSFVLDANQPVDNYWIRAQPNKGRNGLAGTFANGVNSAILRYAGAANADPTTSANPNPAQLNEADLHALIDPAAPGIPTPGAADVNLRFQLGFSGGRFTINGTAYESPSVPTLLQIMSGAQSANDLLPAGSVYELPRNQVVELVVPAGVLGGPHPFHLHGHAFSVVRSAGSSTYNFVNPVKRDVVSLGVTGDEVTIRFVTDNPGPWFFHCHIEFHLMNGLAIVFAEDMANTVDANNPPVEWAQLCEIYDDLPPEATSIQTVVRRAEPTGFSAKFRREGL
Consider B1, for which, in data set [1], the Km was found to be 23 ± 3 µM and the kcat was 18.17 ± 0.5 s⁻¹. Further, in data set [2], the Km was 26 ± 6 µM and the kcat amounted to 3 ± 0.333 s⁻¹.
